According to the supplement of paper PMC10724198:
± gives the standard deviation of the averaged measurements.

Experiments:
[1] = test system: Saccharomyces cerevisiae; assay: protein stability index of tFT-peptide fusion (C-terminal peptide) (PSI (0-1 scale)); higher = more stable (slower turnover); conditions: genetic background: wild type; temperature: 30 C
[2] = test system: Saccharomyces cerevisiae; assay: as above
Method: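 MPS profiling in S. cerevisiae of the tFT-X12 degron library: putative degron peptides plus stable controls, 12 aa, fused to the C-terminus of a sfGFP-mCherry timer. Cells are FACS-sorted into 8 mCherry/sfGFP bins and deep-sequenced. PSI runs from 0 (unstable) to 1 (stable). Backgrounds are wild type, das1Δ and doa10Δ at 30 °C, and wild type, das1Δ, cdc34-1 and cdc53-1 at 37 °C; 2-3 technical replicates each.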

[3] = genetic background: cdc34-1, temperature: 37 C
[4] = genetic background: cdc53-1, temperature: 37 C
[5] = genetic background: das1 deletion, temperature: 30 C
[6] = genetic background: das1 deletion, temperature: 37 C
[7] = genetic background: doa10 deletion, temperature: 30 C
[8] = genetic background: wild type, temperature: 30 C
[9] = genetic background: wild type, temperature: 37 C
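Note: PSI is a weighted mean of sequencing reads over stability bins, variants kept only with over 10 reads, mCherry proximal and sfGFP distal, peptide attached via GGGS linker.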

## APTMAIIVVHVR
[1]
  protein stability index: 0.3059 ± 0.0021
[2]; [3]
  protein stability index: 0.237 ± 0.022
[2]; [4]
  protein stability index: 0.291 ± 0.013
[2]; [5]
  protein stability index: 0.22 ± 0.034
[2]; [6]
  protein stability index: 0.3582 ± 0.0027
[2]; [7]
  protein stability index: 0.1859 ± 0.0016
[2]; [8]
  protein stability index: 0.207 ± 0.036
[2]; [9]
  protein stability index: 0.359 ± 0.019

## ARKIGKVIPKLG
[1]
  protein stability index: 0.43 ± 0.027
[2]; [3]
  protein stability index: 0.686 ± 0.021
[2]; [4]
  protein stability index: 0.732 ± 0.037
[2]; [5]
  protein stability index: 0.634 ± 0.043
[2]; [6]
  protein stability index: 0.737 ± 0.02
[2]; [7]
  protein stability index: 0.292 ± 0.0097
[2]; [8]
  protein stability index: 0.341 ± 0.039
[2]; [9]
  protein stability index: 0.599 ± 0.011

## ASLSSSRPPLLP
[1]
  protein stability index: 0.746 ± 0.051
[2]; [3]
  protein stability index: 0.685 ± 0.053
[2]; [4]
  protein stability index: 0.752 ± 0.02
[2]; [5]
  protein stability index: 0.658 ± 0.025
[2]; [6]
  protein stability index: 0.7114 ± 0.0024
[2]; [7]
  protein stability index: 0.644 ± 0.02
[2]; [8]
  protein stability index: 0.648 ± 0.014
[2]; [9]
  protein stability index: 0.6962 ± 0.0011

## ASLVGGVLLVVV
[1]
  protein stability index: 0.454 ± 0.011
[2]; [3]
  protein stability index: 0.495 ± 0.0051
[2]; [4]
  protein stability index: 0.5 ± 0.012
[2]; [5]
  protein stability index: 0.346 ± 0.032
[2]; [6]
  protein stability index: 0.535 ± 0.0056
[2]; [7]
  protein stability index: 0.313 ± 0.017
[2]; [8]
  protein stability index: 0.352 ± 0.022
[2]; [9]
  protein stability index: 0.502 ± 0.022

## AWPGRLWYFWLA
[1]
  protein stability index: 0.251 ± 0.14
[2]; [3]
  protein stability index: 0.655 ± 0.028
[2]; [4]
  protein stability index: 0.7846 ± 0.0056
[2]; [5]
  protein stability index: 0.637 ± 0.018
[2]; [6]
  protein stability index: 0.755 ± 0.011
[2]; [7]
  protein stability index: 0.189 ± 0.0052
[2]; [8]
  protein stability index: 0.215 ± 0.025
[2]; [9]
  protein stability index: 0.4106 ± 0.003

## AYCGGRNKCTTE
[1]
  protein stability index: 0.701 ± 0.0081
[2]; [3]
  protein stability index: 0.689 ± 0.015
[2]; [4]
  protein stability index: 0.711 ± 0.021
[2]; [5]
  protein stability index: 0.644 ± 0.034
[2]; [6]
  protein stability index: 0.744 ± 0.013
[2]; [7]
  protein stability index: 0.659 ± 0.014
[2]; [8]
  protein stability index: 0.643 ± 0.011
[2]; [9]
  protein stability index: 0.712 ± 0.0078

## AYVAPRRALMCS
[1]
  protein stability index: 0.421 ± 0.069
[2]; [3]
  protein stability index: 0.422 ± 0.02
[2]; [4]
  protein stability index: 0.495 ± 0.019
[2]; [5]
  protein stability index: 0.352 ± 0.031
[2]; [6]
  protein stability index: 0.517 ± 0.011
[2]; [7]
  protein stability index: 0.259 ± 0.011
[2]; [8]
  protein stability index: 0.281 ± 0.018
[2]; [9]
  protein stability index: 0.406 ± 0.017

## CEERVKSRLKQN
[1]
  protein stability index: 0.226 ± 0.082
[2]; [3]
  protein stability index: 0.619 ± 0.011
[2]; [4]
  protein stability index: 0.68 ± 0.013
[2]; [5]
  protein stability index: 0.653 ± 0.043
[2]; [6]
  protein stability index: 0.728 ± 0.014
[2]; [7]
  protein stability index: 0.174 ± 0.012
[2]; [8]
  protein stability index: 0.18 ± 0.031
[2]; [9]
  protein stability index: 0.307 ± 0.022

## CFCLFVFFISSC
[1]
  protein stability index: 0.362 ± 0.057
[2]; [3]
  protein stability index: 0.2112 ± 0.00091
[2]; [4]
  protein stability index: 0.414 ± 0.015
[2]; [5]
  protein stability index: 0.223 ± 0.033
[2]; [6]
  protein stability index: 0.459 ± 0.015
[2]; [7]
  protein stability index: 0.19 ± 0.019
[2]; [8]
  protein stability index: 0.233 ± 0.019
[2]; [9]
  protein stability index: 0.397 ± 0.015

## CFCSFQFVRLWV
[1]
  protein stability index: 0.452 ± 0.062
[2]; [3]
  protein stability index: 0.593 ± 0.0065
[2]; [4]
  protein stability index: 0.6165 ± 0.0048
[2]; [5]
  protein stability index: 0.49 ± 0.028
[2]; [6]
  protein stability index: 0.6443 ± 0.0064
[2]; [7]
  protein stability index: 0.455 ± 0.03
[2]; [8]
  protein stability index: 0.444 ± 0.011
[2]; [9]
  protein stability index: 0.58 ± 0.0096

## CFFFPCFSFRFL
[1]
  protein stability index: 0.342 ± 0.041
[2]; [3]
  protein stability index: 0.39 ± 0.0076
[2]; [4]
  protein stability index: 0.448 ± 0.012
[2]; [5]
  protein stability index: 0.416 ± 0.024
[2]; [6]
  protein stability index: 0.528 ± 0.015
[2]; [7]
  protein stability index: 0.377 ± 0.02
[2]; [8]
  protein stability index: 0.296 ± 0.011
[2]; [9]
  protein stability index: 0.453 ± 0.033

## CFFICGVFVFLM
[1]
  protein stability index: 0.3651 ± 0.00098
[2]; [3]
  protein stability index: 0.21 ± 0.07
[2]; [4]
  protein stability index: 0.338 ± 0.029
[2]; [5]
  protein stability index: 0.257 ± 0.03
[2]; [6]
  protein stability index: 0.435 ± 0.014
[2]; [7]
  protein stability index: 0.229 ± 0.01
[2]; [8]
  protein stability index: 0.244 ± 0.034
[2]; [9]
  protein stability index: 0.4088 ± 0.0015
